Laboratory results reported in US11278600B2, “Human alpha-galactosidase variants” (Codexis, Inc., priority 2014, dated 2022).

Experiments:
Type in all cases: biochemical
[1] = HTP-analysis of yeast culture supernatants, no challenge (MUGal hydrolysis); settings: activity of the variant/activity of Rd7BB (SEQ ID NO: 44)
Outline: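 GLA variants were expressed in INVSc1 yeast grown in SD-Ura broth with glucose at 30° C., and culture supernatants were collected after 66-84 h. Supernatant was mixed with McIlvaine buffer pH 4.8 and MUGal (2 mM stock) in 50 mM citrate, 200 mM KCl, pH 4.6, incubated at 37° C. for 30-180 minutes, then quenched with sodium carbonate.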

[2] = HTP-analysis of supernatants pretreated with acid (MUGal hydrolysis); settings: activity of the variant/activity of Rd7BB (SEQ ID NO: 44); challenge at pH 3.5
Outline: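 GLA variants were secreted from INVSc1 yeast grown 66-84 h at 30° C. in SD-Ura with 2% glucose; supernatants were mixed with McIlvaine buffer pH 3.3-4.3 and held at 37° C. for 1-3 h. Residual activity on MUGal at pH 4.8 was then measured by fluorescence.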

[3] = HTP-analysis of supernatants pretreated with base (MUGal hydrolysis); settings: activity of the variant/activity of Rd7BB (SEQ ID NO: 44); challenge at pH 7.5
Outline: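 GLA variants were secreted by transformed INVSc1 yeast grown 66-84 h at 30° C. Supernatants were exposed to neutral-to-basic buffers (pH 7.0-9.7) at 37° C for 1-18 h, then assayed with MUGal in acidic citrate/McIlvaine buffer, with fluorescence read after quenching.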

Molecule | Relative Activity of GLA Variants After No Challenge (NC) [1] | Relative Activity of GLA Variants After Challenge at pH 3.5 [2] | Relative Activity of GLA Variants After Challenge at pH 7.5 [3]
664 (protein, Synthetic Polypeptide sequence of Variant No. 664 of mature Human GLA) LDNGLARTPPMGWLHWERFMCNLDCQEEPDSCISEKLFMEMAERMVTEGWKDAGYEYLCIDDCWMAPQRDSEGRLQADPQRFPHGIRQLANHVHSKGLKLGIYADVGNKTCAGFPGSFGYYDIDAQTFADWGVDLLKFDGCYCDSLENLADGYKHMSLALNRTGRPIVYSCEWPLYMWPFQKPNYTEIRQYCNHWRNFADIDDSWASIKSILDWTSRNQERIVDVAGPGGWNDPDMLVIGNFGLSWDQQVTHRELWAIMAGPLFMSNDLRAISPQAKALLQDKDVIAINQDPLGKQGYQLRKGDNFEVWERPLSGDAWAVAIINRQEIGGPRSYTIPVASLGKGVACNPACFITQLLPVKRQLGFYNWTSRLKSHINPTGTVLLQLENTMQTSLKDLL | − (<0.5 relative activity to Rd7BB (SEQ ID NO: 44)) | − (<0.5 relative activity to Rd7BB (SEQ ID NO: 44)) | − (<0.5 relative activity to Rd7BB (SEQ ID NO: 44))
668 (protein, Synthetic Polypeptide sequence of Variant No. 668 of mature Human GLA) LDNGLARTPTMGWLHWERFMCNLDCQEEPDSCISEKLFEEMAERMVTEGWKDAGYEYLCIDDCWMAPQRDSEGRLQADPQRFPHGIRQLANHVHSKGLKLGIYADVGNKTCAGFPGSFGYYDIDAQTFADWGVDLLKFDGCYCDSLENLADGYKHMSLALNRTGRPIVYSCEWPLYMWPFQKPNYTEIRQYCNHWRNFADIDDSWASIKSILDWTSRNQERIVDVAGPGGWNDPDMLVIGNFGLSWDQQVTQMALWAIMAAPLFMSNDLRAISPQAKALLQDKDVIAINQDPLGKQGYQLRKGDNFEVWERPLSGDAWAVAIINRQEIGGPRSYTIPVASLGKGVACNPACFITQLLPVKRQLGFYNWTSRLKSHINPTGTVLLQLENTMQTSLKDLL | + (>0.5 to 1.5 relative activity over Rd7BB (SEQ ID NO: 44)) | + (>0.5 to 1.5 relative activity over Rd7BB (SEQ ID NO: 44)) | + (>0.5 to 1.5 relative activity over Rd7BB (SEQ ID NO: 44))
666 (protein, Synthetic Polypeptide sequence of Variant No. 666 of mature Human GLA) LDNGLARTPTMGWLHWERFMCNLDCQEEPDSCISEKLFMEMAERMVTEGWKDAGYEYLCIDDCWMAPQRDSEGRLQADPQRFPHGIRQLANHVHSKGLKLGIYADVGNKTCAGFPGSFGYYDIDAQTFADWGVDLLKFDGCYCDSLENLADGYKHMSLALNRTGRPIVYSCEWPLYMWPFQKPNYTEIRQYCNHWRNFADIDDSWASIKSILDWTSRNQERIVDVAGLGGWNDPDMLVIGNFGLSWDQQVTQMALWAIMAAPLFMSNDLRAISPQAKALLQDKDVIAINQDPLGKQGYQLRKGDNFEVWERPLSGDAWAVAIINRQEIGGPRSYTIPVASLGKGVACNPACFITQLLPVKRQLGFYNWTSRLKSHINPTGTVLLQLENTMQTSLKDLL | + (>0.5 to 1.5 relative activity over Rd7BB (SEQ ID NO: 44)) | + (>0.5 to 1.5 relative activity over Rd7BB (SEQ ID NO: 44)) | − (<0.5 relative activity to Rd7BB (SEQ ID NO: 44))
667 (protein, Synthetic Polypeptide sequence of Variant No. 667 of mature Human GLA) LDNGLARTPTMGWLHWERFMCNLDCQEEPGSCISEKLFMEMAERMVTEGWKDAGYEYLCIDDCWMAPQRDSEGRLQADPQRFPHGIRQLANHVHSKGLKLGIYADVGNKTCAGFPGSFGYYDIDAQTFADWGVDLLKFDGCYCDSLENLADGYKHMSLALNRTGRPIVYSCEWPLYMWPFQKPNYTEIRQYCNHWRNFADIDDSWASIKSILDWTSRNQERIVDVAGPGGWNDPDMLVIGNFGLSWDQQVTQMALWAIMAAPLFMSNDLRAISPQAKALLQDKDVIAINQDPLGKQGYQLRKGDNFEVWERPLSGDAWAVAIINRQEIGGPRSYTIPVASLGKGVACNPACFITQLLPVKRQLGFYNWTSRLKSHINPTGTVLLQLENTMQTSLKDLL | + (>0.5 to 1.5 relative activity over Rd7BB (SEQ ID NO: 44)) | + (>0.5 to 1.5 relative activity over Rd7BB (SEQ ID NO: 44)) | + (>0.5 to 1.5 relative activity over Rd7BB (SEQ ID NO: 44))
665 (protein, Synthetic Polypeptide sequence of Variant No. 665 of mature Human GLA) LDNGLACTPTMGWLHWERFMCNLDCQEEPDSCISEKLFMEMAERMVTEGWKDAGYEYLCIDDCWMAPQRDSEGRLQADPQRFPHGIRQLANHVHSKGLKLGIYADVGNKTCAGFPGSFGYYDIDAQTFADWGVDLLKFDGCYCDSLENLADGYKHMSLALNRTGRPIVYSCEWPLYMWPFQKPNYTEIRQYCNHWRNFADIDDSWASIKSILDWTSRNQERIVDVAGPGGWNDPDMLVIGNFGLSWDQQVTQMALWAIMAAPLFMSNDLRAISPQAKALLQDKDVIAINQDPLGKQGYQLRKGDNFEVWERPLSGDAWAVAIINRQEIGGPRSYTIPVASLGKGVACNPACFITQLLPVKRQLGFYNATSRLKSHINPTGTVLLQLENTMQTSLKDLL | + (>0.5 to 1.5 relative activity over Rd7BB (SEQ ID NO: 44)) | + (>0.5 to 1.5 relative activity over Rd7BB (SEQ ID NO: 44)) | + (>0.5 to 1.5 relative activity over Rd7BB (SEQ ID NO: 44))
639 (protein, Synthetic Polypeptide sequence of Variant No. 639 of mature Human GLA) LDNGLARTPTMGWLHWERFMCNLDCQEEPDSCISEKLFEEMAERMVTEGWKDAGYEYLCIDDCWMAPQRDSEGRLQADPQRFPHGIRQLANHVHSKGLKLGIYADVGNKTCAGFPGSFGYYDIDAQTFADWGVDLLKFDGCYCDSLENLADGYKHMSLALNRTGRPIVYSCEWPLYMWPFQKPNYTEIRQYCNHWRNFADIDDSWASIKSILDWTSRNQERIVDVAGPGGWNDPDMLVIGNFGLSWYQQVTQMALWAIMAAPLFMSNDLRAISPQAKALLQDKDVIAINQDPLGKQGYQLRKGDNFEVWERPLSGDAWAVAIINRQEIGGPRSYTIPVASLGKGVACNPACFITQLLPVKRQLGFYNWTSRLKSHINPTGTVLLQLENTMQTSLKDLL | − (<0.5 relative activity to Rd7BB (SEQ ID NO: 44)) | − (<0.5 relative activity to Rd7BB (SEQ ID NO: 44)) | − (<0.5 relative activity to Rd7BB (SEQ ID NO: 44))
